Reference: US20100325744A1
Changes are numbered by the printed parent chain. Numbers in names are those of the source.

Legend:
2F8-HG-T234A (human) = assay: self-association of HG half-molecules; non-covalent nano-electrospray mass spectrometry
2F8-HG-L236V (human) [1] = assay: as above
2F8-HG-L236V (human) [2] = assay: self-association; non-covalent nano-electrospray mass spectrometry at 0.01-10 µM
2F8-HG-Y275A (human) [3] = assay: self-association of HG half-molecules; non-covalent nano-electrospray mass spectrometry
2F8-HG-Y275A (human) [4] = assay: self-association; non-covalent nano-electrospray mass spectrometry at 0.01-10 µM
2F8-HG-F273L (human) = assay: self-association of HG half-molecules; non-covalent nano-electrospray mass spectrometry
2F8-HG-L236A (human) = assay: as above
2F8-HG-F273A (human) [5] = assay: as above
2F8-HG-F273A (human) [6] = assay: self-association; non-covalent nano-electrospray mass spectrometry at 0.01-10 µM

B1: 2F8-HG-T234A (antibody, part only; not given: 2F8 variable domains, not shown: a dimerising Fc or GST)
heavy, part: ASTKGPSVFPLAPCSRSTSESTAALGCLVKDYFPEPVTVSWNSGALTSGVHTFPAVLQSSGLYSLSSVVTVPSSSLGTKTYTCNVDHKPSNTKVDKRVAPEFLGGPSVFLFPPKPKDTLMISRTPEVTCVVVDVSQEDPEVQFNWYVDGVEVHNAKTKPREEQFNSTYRVVSVLTVLHQDWLNGKEYKCKVSNKGLPSSIEKTISKAKGQPREPQVYTLPPSQEEMTKNQVSLACLVKGFYPSDIAVEWESNGQPENNYKTTPPVLDSDGSFFLYSRLTVDKSRWQEGNVFSCSVMHEALHNHYTQKSLSLSLGK
B1 was tested, and the percentage molecules present as monomers (2F8-HG-T234A (human)) was > 80%.

B2: 2F8-HG-L236V (antibody, part only; not given: 2F8 variable domains, not shown: a dimerising Fc or GST)
heavy, part: B1 heavy, part with A234T, L236V
With B2 the percentage molecules present as monomers (2F8-HG-L236V (human) [1]) was > 80% and the percentage monomeric at low concentrations (2F8-HG-L236V (human) [2]) was 100%.

B3: 2F8-HG-Y275A (antibody, part only; not given: 2F8 variable domains, not shown: a dimerising Fc or GST)
heavy, part: B1 heavy, part with A234T, Y275A
With B3 the percentage molecules present as monomers (2F8-HG-Y275A (human) [3]) was > 80% and the percentage monomeric at low concentrations (2F8-HG-Y275A (human) [4]) was 100%.

B4: 2F8-HG-F273L (antibody, part only; not given: 2F8 variable domains, not shown: a dimerising Fc or GST)
heavy, part: B1 heavy, part with A234T, F273L
In the case of B4, the percentage molecules present as monomers (2F8-HG-F273L (human)) is reported as > 80%.

B5: 2F8-HG-L236A (antibody, part only; not given: 2F8 variable domains, not shown: a dimerising Fc or GST)
heavy, part: B1 heavy, part with A234T, L236A
With B5 the percentage molecules present as monomers (2F8-HG-L236A (human)) was > 80%.

B6: 2F8-HG-F273A (antibody, part only; not given: 2F8 variable domains, not shown: a dimerising Fc or GST)
heavy, part: B1 heavy, part with A234T, F273A
B6 was tested, and the percentage molecules present as monomers (2F8-HG-F273A (human) [5]) was > 80% and the percentage monomeric at low concentrations (2F8-HG-F273A (human) [6]) was 100%.
